Experimental findings from US20030203451A1 (Genentech, published 2003) are described below.

Test [1] concerns the target recombinant IL-17E (baculovirus, Examples 33/34) (human) (UniProt Q9H293). Nature of the test: SPR (BIAcore 1000), IL-17E immobilized on CM5 chip, IL-17RH1 ECD in solution, 1:1 model.
Test [2] has as its target T1, IL-17R extracellular domain (residues 1-288), baculovirus, Examples 33/34 (human, UniProt Q96F46 33-320).
T1 construct: range 1-288; also called IL-17R ECD
Nature of the test: SPR (BIAcore).

Test [3] concerns the target T2, IL-17RH1 (PRO5801) extracellular domain (residues 1-275), baculovirus, Examples 33/34 (human) (UniProt Q9NRM6).
T2 sequence: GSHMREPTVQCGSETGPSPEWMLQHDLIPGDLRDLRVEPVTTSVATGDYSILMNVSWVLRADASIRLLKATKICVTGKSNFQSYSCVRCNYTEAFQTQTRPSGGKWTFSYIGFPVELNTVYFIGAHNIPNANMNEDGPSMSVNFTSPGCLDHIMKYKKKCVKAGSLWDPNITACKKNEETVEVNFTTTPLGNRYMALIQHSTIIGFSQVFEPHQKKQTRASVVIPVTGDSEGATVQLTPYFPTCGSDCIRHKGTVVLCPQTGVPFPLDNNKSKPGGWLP
Nature of the test: SPR (BIAcore 1000), IL-17RH1 ECD immobilized on CM5 chip, IL-17E in solution, 1:1 model.

Test [4] deals with T3, IL-17RH1 (PRO5801) expressed on transfected 293 cells (human, UniProt Q9NRM6 18-502).
T3 construct: also called IL-17RH1 expressing cells
T3 sequence: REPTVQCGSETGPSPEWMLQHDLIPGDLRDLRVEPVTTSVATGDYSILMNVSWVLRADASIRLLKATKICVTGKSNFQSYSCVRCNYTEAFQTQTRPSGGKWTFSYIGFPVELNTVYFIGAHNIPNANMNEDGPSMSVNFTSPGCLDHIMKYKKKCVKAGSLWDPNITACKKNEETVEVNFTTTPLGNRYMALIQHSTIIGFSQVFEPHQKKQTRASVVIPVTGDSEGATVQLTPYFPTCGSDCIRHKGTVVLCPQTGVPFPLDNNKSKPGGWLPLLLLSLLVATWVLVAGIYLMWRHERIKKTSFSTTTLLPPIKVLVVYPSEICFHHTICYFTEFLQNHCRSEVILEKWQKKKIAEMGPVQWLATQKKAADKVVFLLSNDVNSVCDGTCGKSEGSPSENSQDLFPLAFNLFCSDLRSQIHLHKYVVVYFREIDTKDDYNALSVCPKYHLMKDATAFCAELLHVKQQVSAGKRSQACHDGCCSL
Nature of the test: FACS on 293 cells co-transfected with GFP and IL-17RH1, ligand-Fc detected with PE anti-human Fc antibody, GFP-positive cells.

Test [5] has as its target T3, IL-17RH1 (PRO5801) expressed on …. Nature of the test: flow cytometry competition against IL-17E immunoadhesin on IL-17RH1-transfected 293 cells.
Test [6] addresses T1, IL-17R extracellular domain (residues …). Nature of the test: SPR (BIAcore), IL-17F immobilized, receptor ECD in solution.

Regarding “IL-17RH1 (PRO5801) extracellular domain (residues 1-275), baculovirus, Examples 33/34 (from UniProt Q9NRM6 18-292) (receptor)”, in test [1], the Kd is 1.1 nM, the koff was determined as 0.0007 s⁻¹ and the kon came out at 670000 M⁻¹ s⁻¹.

B1: recombinant IL-17E (baculovirus, Examples 33/34) (ligand)
chain: GSHMYSHWPSCCPSKGQDTSEELLRWSTVPVPPLEPARPNRHPESCRASEDGPLNSRAISPWRYELDRDLNRLPQDLYHARCLCPHCVSLQTGSHMDPRGNSELLYHNQTVFYRRPCHGEKGTHKGYCLERRLYRVSLACVCVRPRVMG
notes: also called IL-17E (PRO10272); soluble IL-17E
For the molecule B1, the binding result in test [2] is reported as “no binding”. In addition, in test [3], the Kd amounted to 1.4 nM, the koff is 0.00062 s⁻¹ and the kon stood at 430000 M⁻¹ s⁻¹.

B2: IL-17E-Fc fusion protein (IL-17E immunoadhesin) (Fc fusion)
chain: YSHWPSCCPSKGQDTSEELLRWSTVPVPPLEPARPNRHPESCRASEDGPLNSRAISPWRYELDRDLNRLPQDLYHARCLCPHCVSLQTGSHMDPRGNSELLYHNQTVFYRRPCHGEKGTHKGYCLERRLYRVSLACVCVRPRVMG
notes: not shown: Fc region of human IgG1, fused in frame at the C-terminus
Turning to B2, the binding result in test [4] is reported as “binds”.

B3: His epitope tagged IL-17E (E. coli, refolded) (ligand)
chain: B2 chain
notes: also called IL-17E 8xHis-tag fusion; not shown: 8xHis-tag fusion
As for B3, the binding result in test [5] was “binds”.

B4: recombinant IL-17F (baculovirus, Examples 33/34) (ligand)
chain: GSHMRKIPKVGHTFFQKPESCPPVPGGSMKLDIGIINENQRVSMSRNIESRSTSPWNYTVTWDPNRYPSEVVQAQCRNLGCINAQGKEDISMNSVPIQQETLVVRRKHQGCSVSFQLEKVLVTVGCTCVTPVIHHVQ
modifications: N-glycosylation at Asn 53 (mature numbering); about 3 kDa carbohydrate per dimer
notes: The same protein was crystallized; also called IL-17F (PRO20110); immobilized IL-17F
As for B4, the binding result in test [6] is recorded as “no binding (tested: up to 1 µM)”.
